Measurements reported in the FLAb antibody collection.

Test: patients with anti-drug antibodies; higher = more immunogenic

| Protein | patients with anti-drug antibodies [%] |
| --- | --- |
| unnamed (protein) chain 1: QVQLQESGPGLVRPSQTLSLTCTVSGFTFTDFYMNWVRQPPGRGLEWIGFIRDKAKGYTTEYNPSVKGRVTMLVDTSKNQFSLRLSSVTAADTAVYYCAREGHTAAPFDYWGQGSLVTVSS chain 2: DIQMTQSPSSLSASVGDRVTITCKASQNIDKYLNWYQQKPGKAPKLLIYNTNNLQTGVPSRFSGSGSGTDFTFTISSLQPEDIATYYCLQHISRPRTFGQGTKVEIK | 5.1 |
| unnamed (protein) chain 1: EVQLLESGGGLVQPGGSLRLSCAASGFTFSSYAMNWVRQAPGKGLEWVSAITMSGITAYYTDDVKGRFTISRDNSKNTLYLQMNSLRAEDTAVYYCAKEEFLPGTHYYYGMDVWGQGTTVTVSS chain 2: AIQMTQSPSSLSASVGDRVTITCRASQGIRNDLGWYQQKPGKAPKLLIYSASTLQSGVPSRFSGSGSGTDFTLTISSLQPEDFATYCLQDYNYPWTFGQGTKVEIK | 2.5 |
| unnamed (protein) chain 1: EVQLVESGGGLVQPGGSLRLSCAASGFTLRSYSMNWVRQAPGKGLEWVSYISRSSHTIFYADSVKGRFTISRDNAKNSLYLQMDSLRDEDTAMYYCARVYSSGWHVSDYFDYWGQGILVTVSS chain 2: AIQLTQSPSSLSASVGDRVTITCRASQGISSALAWYQQKPGKAPKLLIYDASSLESGVPSRFSGSGSGTDFTLTISSLQPEDFATYYCQQFNSYPLTFGGGTKVEIK | 2.9 |
| unnamed (protein) chain 1: QVQLVQSGAEVKKPGSSVKVSCKASGYTFGNYWMQWVRQAPGQGLEWMGAIYEGTGKTVYIQKFADRVTITADKSTSTAYMELSSLRSEDTAVYYCARLSDYVSGFGYWGQGTTVTVSS chain 2: DIQMTQSPSSLSASVGDRVTITCRASKDISKYLNWYQQKPGKAPKLLIYYTSGYHSGVPSRFSGSGSGTDFTLTISSLQPEDFATYYCQQGDALPPTFGGGTKVEIK | 8.7 |
| unnamed (protein) chain 1: QVQLQESGPGLVKPSQTLSLTCSFSGFSLSTSGMGVGWIRQPSGKGLEWLAHIWWDGDESYNPSLKSRLTISKDTSKNQVSLKITSVTAADTAVYFCARNRYDPPWFVDWGQGTLVTVSS chain 2: DIQMTQSTSSLSASVGDRVTITCRASQDISNYLSWYQQKPGKAVKLLIYYTSKLHSGVPSRFSGSGSGTDYTLTISSLQQEDFATYFCLQGKMLPWTFGQGTKLEIK | 37 |
| unnamed (protein) chain 1: QVQLQQSGPEVVKPGASVKMSCKASGYTFTSYVIHWVRQKPGQGLDWIGYINPYNDGTDYDEKFKGKATLTSDTSTSTAYMELSSLRSEDTAVYYCAREKDNYATGAWFAYWGQGTLVTVSS chain 2: DIVMTQSPDSLAVSLGERVTMNCKSSQSLLYSTNQKNYLAWYQQKPGQSPKLLIYWASTRESGVPDRFSGSGSGTDFTLTISSVQAEDVAVYYCQQYYSYRTFGGGTKLEIK | 15 |
| unnamed (protein) chain 1: QVQLQESGPGLVKPSETLSLTCAVSGGSISGGYGWGWIRQPPGKGLEWIGSFYSSSGNTYYNPSLKSQVTISTDTSKNQFSLKLNSMTAADTAVYYCVRDRLFSVVGMVYNNWFDVWGPGVLVTVSS chain 2: ESALTQPPSVSGAPGQKVTISCTGSTSNIGGYDLHWYQQLPGTAPKLLIYDINKRPSGISDRFSGSKSGTAASLAITGLQTEDEADYYCQSYDSSLNAQVFGGGTRLTVL | 0 |
| unnamed (protein) chain 1: EVQLVESGGGLVKPGGSLRLSCAASGFPFSKLGMVWVRQAPGKGLEWVSTISSGGGYTYYPDSVKGRFTISRDNAKNSLYLQMNSLRAEDTAVYYCAREGISFQGGTYTYVMDYWGQGTLVTVSS chain 2: DIVMTQSPLSLPVTPGEPASISCRSSKSLLHRNGITYSYWYLQKPGQSPQLLIYQLSNLASGVPDRFSGSGSGTDFTLKISRVEAEDVGVYYCYQNLELPLTFGQGTKVEIK | 6.5 |
| unnamed (protein) chain 1: EVQLVESGGGVVQPGKSLRLSCAASGLTFSSYAVHWVRQAPGKGLEWVTLISYDGANQYYADSVKGRFTISRDNSKNTVYLQMNSLRPEDTAVYYCAVPGPVFGIFPPWSYFDNWGQGILVTVSS chain 2: EIVLTQSPATLSVSPGERATLSCRASQVISHNLAWYQQKPGQAPRLLIYGASTRASGIPARFSGSGSGTDYTLTITSLQSEDFAVYYCQHYSNWPPRLTFGGGTKVEIK | 1 |
| unnamed (protein) chain 1: EVQLQQPGSELVRPGASVKLSCKASGYTFTSYWMHWVKQRPGQGLEWIGNIYPGSRSTNYDEKFKSKATLTVDTSSSTAYMQLSSLTSEDSAVYYCTRNGDYYVSSGDAMDYWGQGTSVTVSS chain 2: DIQMTQTTSSLSASLGDRVTISCRTSQDIGNYLNWYQQKPDGTVKLLIYYTSRLHSGVPSRFSGSGSGTDFSLTINNVEQEDVATYFCQHYNTVPPTFGGGTKLEIK | 0 |
| unnamed (protein) chain 1: EVQLVQSGAEVKKPGSSVKVSCKASGYTITDSNIHWVRQAPGQSLEWIGYIYPYNGGTDYNQKFKNRATLTVDNPTNTAYMELSSLRSEDTAFYYCVNGNPWLAYWGQGTLVTVSS chain 2: DIQLTQSPSTLSASVGDRVTITCRASESLDNYGIRFLTWFQQKPGKAPKLLMYAASNQGSGVPSRFSGSGSGTEFTLTISSLQPDDFATYYCQQTKEVPWSFGQGTKVEVK | 0 |
| unnamed (protein) chain 1: EVHLVESGGALVKPGGSLRLSCAASGFSFSKYGMSWVRQAPGKGLEWVATISSSGSRTYYPDSVKGRFTISRDNAKNTLYLQMNSLRAEDTAMYYCSISWDGAMDYWGQGTTVTVSS chain 2: DVVMTQSPLSLPVTLGQPASISCKSSQSIVHSNGNTYLEWYLQKPGQSPQLLVYKVSNRFSGVPDRFSGSGSGTDFTLKISRVEAEDVGTYYCFQGSLVPWAFGGGTKVEIK | 6.2 |
| unnamed (protein) chain 1: QVELVESGGGLVQPGGSLRLSCAASGFTFSSYAMSWVRQAPGKGLEWVSAINASGTRTYYADSVKGRFTISRDNSKNTLYLQMNSLRAEDTAVYYCARGKGNTHKPYGYVRYFDVWGQGTLVTVSS chain 2: DIVLTQSPATLSLSPGERATLSCRASQSVSSSYLAWYQQKPGQAPRLLIYGASSRATGVPARFSGSGSGTDFTLTISSLEPEDFATYYCLQIYNMPITFGQGTKVEIK | 0 |
| unnamed (protein) chain 1: EVQLVQSGAEVKKPGESLKISCKGSGYSFSNYWIGWVRQMPGKGLEWMGIIDPSNSYTRYSPSFQGQVTISADKSISTAYLQWSSLKASDTAMYYCARWYYKPFDVWGQGTLVTVSS chain 2: QSVLTQPPSVSGAPGQRVTISCTGSSSNIGSGYDVHWYQQLPGTAPKLLIYGNSKRPSGVPDRFSGSKSGTSASLAITGLQSEDEADYYCASWTDGLSLVVFGGGTKLTVL | 6 |
| unnamed (protein) chain 1: QVQLVESGGGLVQPGGSLRLSCAASGFTFRSYAMSWVRQAPGKGLEWVSAISGRGDNTYYADSVKGRFTISRDNSKNTLYLQMNSLRAEDTAVYYCAKMTSNAFAFDYWGQGTLVTVSS chain 2: QSVLTQPPSVSGAPGQRVTISCTGSSSNIGAGYGVHWYQQLPGTAPKLLIYGNTNRPSGVPDRFSGFKSGTSASLAITGLQAEDEADYYCQSYDSSLSGWVFGGGTKLTVL | 2.9 |
| unnamed (protein) chain 1: QAYLQQSGAELVRPGASVKMSCKASGYTFTSYNMHWVKQTPRQGLEWIGAIYPGNGDTSYNQKFKGKATLTVDKSSSTAYMQLSSLTSEDSAVYFCARVVYYSNSYWYFDVWGTGTTVTVSA chain 2: QIVLSQSPAILSASPGEKVTMTCRASSSVSYMHWYQQKPGSSPKPWIYAPSNLASGVPARFSGSGSGTSYSLTISRVEAEDAATYYCQQWSFNPPTFGAGTKLELK | 1.9 |
